Reference: publication PMC3155514

Target: T1, HsRAD51(H294V) H294V (Homo sapiens) (UniProt Q06609)
T1 sequence: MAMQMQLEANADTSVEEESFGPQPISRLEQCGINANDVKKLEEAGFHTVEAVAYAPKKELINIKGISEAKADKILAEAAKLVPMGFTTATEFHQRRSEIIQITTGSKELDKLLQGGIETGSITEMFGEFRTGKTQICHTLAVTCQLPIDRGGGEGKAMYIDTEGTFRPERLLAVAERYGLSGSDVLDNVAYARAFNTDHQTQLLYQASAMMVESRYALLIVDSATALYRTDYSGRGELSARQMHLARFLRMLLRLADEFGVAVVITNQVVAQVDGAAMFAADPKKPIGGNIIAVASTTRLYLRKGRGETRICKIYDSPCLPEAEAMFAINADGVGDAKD
Assay: SPR
Settings: SPR (Biacore 3000): 20 mM HEPES pH 7.5, 10% glycerol, 1 mM DTT, 1 mM MgCl2, 0.005% P-20, 2.5 mM indicated nucleotide, 150 mM KCl when indicated (text: salt …)

TCGAGAGGGTAAACCACAATTATTGATATAAAATAGTTTTGGGTAGGCGA (double strand) [50 bp dsDNA]
Kd: 472 nM
